# Source: patent US8871909B2, “Antibodies inhibiting c-Met dimerization and uses thereof” (Pierre Fabre Medicament, priority 2007, dated 2014)
# B1: 11E1: murine anti-c-Met monoclonal antibody, IgG1 kappa; heavy chain SEQ ID No. 62, light chain SEQ ID No. 63 (antibody, V domains shown)
# VH: QVQLQQSGAELAKPGASVKMSCKASGYTFTSYWMNWVKQRPGQGLEWIGYINPTTGSTDYNQKLKDKATLTADKSSNTAYMQLSSLTSEDSAVYYCAIGGYGSWFAYWGQGTLVTVSA
# VL: QIVLTQSPAIMSASPGEKVTLTCSASSSVSSTYLYWYQQKPGSSPKLWIYTTSILASGVPARFSGSGSGTSYSLTISSMETEDAASYFCHQWSSYPFTFGSGTKLDIK
# modifications: mus musculus
# B2: 224G11: murine anti-c-Met monoclonal antibody, IgG1 kappa; heavy chain SEQ ID No. 18, light chain SEQ ID No. 21 (antibody, V domains shown)
# VH: EVQLQQSGPELVKPGASVKISCKTSGYIFTAYTMHWVRQSLGESLDWIGGIKPNNGLANYNQKFKGKATLTVDKSSSTAYMDLRSLTSEDSAVYYCARSEITTEFDYWGQGTALTVSS
# VL: DIVLTQSPASLAVSLGQRATISCRASESVDSYANSFMHWYQQKPGQPPKLLIYRASNLESGIPARFSGSGSRTDFTLTINPVEADDVATYYCQQSKEDPLTFGSGTKLEMK
# modifications: mus musculus
# B3: 223C4: murine anti-c-Met monoclonal antibody, IgG1 kappa; heavy chain SEQ ID No. 20, light chain SEQ ID No. 23 (antibody, V domains shown)
# VH: EVLLQQSGPELVKPGASVKIPCKASGYTFTDYNMDWVKQSHGMSLEWIGDINPNNGGTIFNQKFKGKATLTVDKSSSTAYMELRSLTSEDTAVYYCARGRYVGYYYAMDYWGQGTSVTVSS
# VL: DIQMTQSPASLSVSVGETVTITCRASENIYSNLAWYQQKQGKSPQLLVYAATNLVDGVPSRFSGSGSGTQYSLKINSLQSEDFGSYYCQHFWGPPYTFGGGTKLEIK
# modifications: mus musculus
# Key:
# [1] = system: c-Met; assay: BRET analysis of c-Met dimerization on c-Met transfected CHO cells; assay type: cell-based; details: CHO cells expressing C-Met-Rluc and C-Met-K1100A-YFP, supernatants
# From the text: The technology BRET, used in the step iii) of the process, is well known by the person skill in the art and will be detailed in the following examples. More particularly, BRET (Bioluminescence Resonance Energy Transfer) is a non-radiative energy transfer occurring between a bioluminescent donor (Renilla Luciferase (Rluc)) and a fluorescent acceptor, a mutant of GFP (Green Fluorescent Protein) or YFP (Yellow fluorescent protein). In the present case EYFP (Enhanced Yellow Fluorescent Protein) was used. The efficacy of transfer depends on the orientation and the distance between the donor and the acceptor. Then, the energy transfer can occur only if the two molecules are in close proximity (1-10 nm). This property is used to generate protein-protein interaction assays. Indeed, in order to study the interaction between two partners, the first one is genetically fused to the Renilla Luciferase and the second one to the yellow mutant of the GFP. Fusion proteins are generally, but not obligatory, expressed in mammalian cells. In presence of its membrane permeable substrate (coelenterazine), Rluc emits blue light. If the GFP mutant is closer than 10 nm from the Rluc, an energy transfer can occur and an additional yellow signal can be detected. The BRET signal is measured as the ratio between the light emitted by the acceptor and the light emitted by the donor. So the BRET signal will increase as the two fusion proteins are brought into proximity or if a conformational change bring Rluc and GFP mutant closer.
# Then antibodies inhibiting at least 50% cell proliferation were evaluated as supernatants by BRET analysis on c-Met transfected cells. For that purpose, CHO stable cell lines expressing C-Met-Rluc or C-Met-Rluc and C-Met-K1100A-YFP were generated. Cells were distributed in white 96 well microplates in DMEM-F12/FBS 5% culture medium one or two days before BRET experiments. Cells were first cultured at 37° C. with CO2 5% in order to allow cell attachment to the plate. Cells were then starved with 200 μl DMEM/well overnight. Immediately prior to the experiment, DMEM was removed and cells quickly washed with PBS. Cells were incubated in PBS in the presence or absence of antibodies to be tested or reference compounds, 10 min at 37° C. prior to the addition of coelenterazine with or without HGF in a final volume of 50 μl. […]
# BRET ratio has been defined previously [Angers et al., Proc. Natl. Acad. Sci. USA, 2000, 97:3684-3689] as: [(emission at 530 nm)−(emission at 485 nm)×Cf]/(emission at 485 nm), where Cf corresponds to (emission at 530 nm)/(emission at 485 nm) for cells expressing Rluc fusion protein alone in the same experimental conditions. […] For the sake of readability, results are expressed in milliBRET units (mBU); mBU corresponds to the BRET ratio multiplied by 1000.
# [2] = system: NCI-H441; assay: NCI-H441 xenograft model (Example 11)
# From the text: The evaluation of anti-c-met antibodies on the in vivo activity of this non autocrine cell line could give some insights about their potency to impact on c-met dimerization.
# [3] = system: HUVEC; assay: HUVEC proliferation ([3H]thymidine); assay type: cell-based; details: HGF 20 ng/ml, 0.15 to 40 μg/ml
# Protocol: For proliferation experiments, 7500 HUVEC were plated in each well of a 96 well plate previously coated with laminin. Cells were grown 24 hours of EMB-2 assay medium supplemented with 0.5% FBS and heparin. Then, MAbs to be tested (0.15 to 40 μg/ml) were added for 1 h before addition of 20 ng/ml of HGF. After 24 additional hours, cells were pulsed with 0.5 μCi of [^3H] Thymidine. The magnitude of [^3H] Thymidine incorporated was quantified by liquid scintillation counting. In This experiment the 9G4 MAb is an irrelevant antibody used as an IgG1 isotype control.
# [4] = system: HUVEC; assay: HUVEC tube formation; assay type: cell-based; details: HGF 50 ng/ml
# Protocol: For evaluation of HUVEC tube formation, 25000 cells incubated 30 min with antibodies to be tested were plated in 48-well plates coated with matrigel. Then HGF 50 ng/ml was added and plates were incubated at 37° C. Medium was then harvested and […] CMFDA was added for 15 min before microscopic observation.
# [5] = target: T1, recombinant c-Met-Extra-Cellular Domain (ECD) fused to an human IgG Fc domain (Homo sapiens, UniProt P08581); assay: Determination of affinity constants (KD) by Biacore analysis; assay type: binding; details: text summary of table 4; read-out: affinity for recombinant c-Met-Fc fusion protein
# T1 construct: recombinant c-Met-Extra-Cellular Domain (ECD) fused to an human IgG Fc domain (R&D Systems) as antigen; purchased R&D Systems
# From the text: The binding affinity of purified 11E1 and 224G11 antibodies was investigated by BIAcore X using recombinant c-Met-Extra-Cellular Domain (ECD) fused to an human IgG Fc domain (R&D Systems) as antigen (MW=129 kDa). As both c-Met-Fc fusion proteins and antibodies are bivalent compounds, Fab fragments of mAbs 11E1 and 224G11 (MW=50 kDa) were generated by papain cleavage, purified and used in this assay to avoid interference with avidity parameter. For the assay, an anti-Tag histidine capture antibody was coated on CM5 sensorchips. The running buffer was HBS-EP, the flow rate was 30 μl/min and the test was performed at 25° C. Soluble c-Met (ECD_M1)2-Fc-(HHHHHH)2 antigen was captured on the sensorchip (around 270 RU), and the antibodies to be tested were used in solution as analytes. The sensorship was regenerated using Glycine, HCl pH 1.5 buffer on both flowcells for half a minute.
# c-Met, sequence (P08581 25-307 limits assumed): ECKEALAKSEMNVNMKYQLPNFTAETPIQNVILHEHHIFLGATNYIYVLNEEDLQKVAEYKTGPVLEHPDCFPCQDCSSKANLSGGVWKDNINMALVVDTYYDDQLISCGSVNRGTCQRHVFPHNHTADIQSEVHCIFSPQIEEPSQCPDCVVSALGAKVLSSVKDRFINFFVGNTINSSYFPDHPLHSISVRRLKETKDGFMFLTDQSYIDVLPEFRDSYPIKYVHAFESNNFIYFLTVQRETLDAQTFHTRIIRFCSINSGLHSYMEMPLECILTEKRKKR
# c-Met, sequence (P08581 308-932 limits assumed): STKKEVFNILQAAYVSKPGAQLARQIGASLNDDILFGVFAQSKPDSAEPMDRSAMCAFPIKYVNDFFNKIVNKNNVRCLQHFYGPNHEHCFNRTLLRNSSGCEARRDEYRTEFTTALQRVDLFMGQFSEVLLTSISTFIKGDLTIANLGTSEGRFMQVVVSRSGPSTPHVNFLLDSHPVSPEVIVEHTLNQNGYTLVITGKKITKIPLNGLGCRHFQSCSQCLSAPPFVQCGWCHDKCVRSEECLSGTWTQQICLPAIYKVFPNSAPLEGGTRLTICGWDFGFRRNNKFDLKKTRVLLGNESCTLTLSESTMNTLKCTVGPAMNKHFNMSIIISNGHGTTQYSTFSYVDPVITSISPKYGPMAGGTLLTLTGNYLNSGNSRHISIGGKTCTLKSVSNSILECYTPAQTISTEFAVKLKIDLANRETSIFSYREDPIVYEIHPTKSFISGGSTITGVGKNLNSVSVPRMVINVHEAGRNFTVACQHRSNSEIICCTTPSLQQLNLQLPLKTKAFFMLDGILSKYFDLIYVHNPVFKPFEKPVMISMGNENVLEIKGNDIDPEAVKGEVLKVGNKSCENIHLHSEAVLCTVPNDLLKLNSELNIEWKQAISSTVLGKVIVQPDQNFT
# T1 sequence (P08581 25-932 limits assumed): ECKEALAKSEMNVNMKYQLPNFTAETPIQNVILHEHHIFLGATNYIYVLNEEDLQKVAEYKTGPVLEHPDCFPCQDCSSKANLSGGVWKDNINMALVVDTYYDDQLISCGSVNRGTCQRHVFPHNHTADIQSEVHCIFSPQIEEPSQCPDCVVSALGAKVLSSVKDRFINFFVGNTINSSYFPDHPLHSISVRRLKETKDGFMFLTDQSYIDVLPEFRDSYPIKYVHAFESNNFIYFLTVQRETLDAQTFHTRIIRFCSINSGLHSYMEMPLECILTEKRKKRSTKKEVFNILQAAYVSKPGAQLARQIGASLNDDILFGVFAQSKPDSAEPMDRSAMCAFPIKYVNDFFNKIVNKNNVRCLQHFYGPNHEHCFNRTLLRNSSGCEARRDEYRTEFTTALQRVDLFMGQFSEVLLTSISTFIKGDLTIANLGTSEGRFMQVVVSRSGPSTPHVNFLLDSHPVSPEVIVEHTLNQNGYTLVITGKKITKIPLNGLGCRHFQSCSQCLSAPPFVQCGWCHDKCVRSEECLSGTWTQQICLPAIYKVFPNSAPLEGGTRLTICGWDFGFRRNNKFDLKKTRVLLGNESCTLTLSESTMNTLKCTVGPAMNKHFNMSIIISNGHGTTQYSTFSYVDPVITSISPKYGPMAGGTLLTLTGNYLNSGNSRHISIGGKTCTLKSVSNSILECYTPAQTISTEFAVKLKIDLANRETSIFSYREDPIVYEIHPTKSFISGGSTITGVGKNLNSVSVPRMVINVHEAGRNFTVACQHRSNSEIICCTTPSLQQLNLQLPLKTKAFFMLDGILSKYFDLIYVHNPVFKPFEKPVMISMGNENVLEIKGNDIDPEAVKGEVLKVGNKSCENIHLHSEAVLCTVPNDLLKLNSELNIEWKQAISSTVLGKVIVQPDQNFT
Molecule,inhibition of dimerization [1] [%],inhibition of in vivo growth of NCI-H441 [2],inhibition of HGF-induced HUVEC proliferation [3],effect on HGF-induced tube formation [4],Kd [5] [nM]
B1,69,inhibited significantly,dramatic dose dependent inhibition,inhibit dramatically,~0.04
B2,32,inhibited significantly,dramatic dose dependent inhibition,inhibit dramatically,~0.04
B3,55,–,–,–,–
